What was measured:
[1] = target: tau mutant M123 (triple mutant, M1+M2+M3) with GFP fused at the N-terminal (human) (UniProt P10636); assay: immunocytochemistry, transfected SHSY5Y cells
[2] = target: tau mutant M123 (triple mutant, M1+M2+M3) with GFP fused at the N-terminal (human) (UniProt P10636); assay: immunocytochemistry, SHSY5Y cells 36 h after transfection
[3] = target: wild-type human tau 441 with GFP fused at the N-terminal (human) (UniProt P10636); assay: as above
Sequence of wild-type human tau 441 with GFP fused at the N-terminal (human) (P10636 other isoform, or with tags, fused parts or gaps): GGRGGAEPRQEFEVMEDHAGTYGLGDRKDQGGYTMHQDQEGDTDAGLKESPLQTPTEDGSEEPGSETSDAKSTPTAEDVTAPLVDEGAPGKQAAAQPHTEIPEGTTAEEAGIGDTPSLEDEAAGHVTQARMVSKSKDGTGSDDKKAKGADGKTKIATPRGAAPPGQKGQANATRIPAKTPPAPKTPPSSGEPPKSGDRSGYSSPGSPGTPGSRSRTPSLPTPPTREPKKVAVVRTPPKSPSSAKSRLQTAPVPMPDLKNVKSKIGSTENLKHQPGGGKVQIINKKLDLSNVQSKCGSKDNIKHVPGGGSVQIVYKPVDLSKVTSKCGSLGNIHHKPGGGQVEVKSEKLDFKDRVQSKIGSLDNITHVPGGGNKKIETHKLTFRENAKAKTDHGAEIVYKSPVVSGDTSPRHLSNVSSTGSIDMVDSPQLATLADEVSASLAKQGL

Sequence of tau mutant M123 (triple mutant, M1+M2+M3) with GFP fused at the N-terminal (human) (P10636 other isoform, or with tags, fused parts or gaps mutant): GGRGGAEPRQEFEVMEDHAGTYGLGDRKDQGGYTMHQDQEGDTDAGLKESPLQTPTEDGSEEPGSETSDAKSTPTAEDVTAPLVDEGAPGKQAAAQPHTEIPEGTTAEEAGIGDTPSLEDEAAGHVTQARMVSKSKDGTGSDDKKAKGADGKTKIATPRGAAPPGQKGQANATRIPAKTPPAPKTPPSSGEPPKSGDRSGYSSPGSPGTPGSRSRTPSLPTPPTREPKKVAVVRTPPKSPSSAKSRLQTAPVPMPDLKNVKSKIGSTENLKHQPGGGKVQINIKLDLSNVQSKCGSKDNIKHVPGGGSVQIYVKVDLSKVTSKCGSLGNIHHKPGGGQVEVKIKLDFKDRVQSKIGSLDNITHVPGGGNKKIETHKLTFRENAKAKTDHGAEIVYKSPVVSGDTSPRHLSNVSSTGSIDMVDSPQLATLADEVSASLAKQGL

percentage of transfected cells AT180 immunopositive [1] [%]	percentage of transfected cells with AT8 immunolabeling [2] [%]	percentage of transfected cells with AT8 immunolabeling [3] [%]	Substance
22.1			AT180 antibody (phosphoepitope T231)
	83.2	9.17	AT8 antibody (S202/T205 specific)
